Data as given in patent publication US20190177366A1 (published 2019).
Bridge positions count the residues as written; N and C are the ends. Ends that are not written are not given here.

B1: SEQ ID NO 373 (peptide)
chain: SGCWTYLRGGCSVT
modifications: not fully specified (bridges); cysteine pairing not given here
notes: phage clone without anchor
B2: SEQ ID NO 382 (peptide)
chain: SGGSIPWNLERITPPR
notes: phage clone without anchor
B3: SEQ ID NO 376 (peptide)
chain: SGDTRSQLSH
notes: phage clone without anchor
B4: SEQ ID NO 384 (peptide)
chain: SGGACPWNLERIGLSC
B5: SEQ ID NO 391 (peptide)
chain: SGCSDLWNLARIYPMC
modifications: not fully specified (bridges); cysteine pairing not given here
B6: SEQ ID NO 375 (peptide)
chain: SGLAPTVSDS
notes: phage clone without anchor
B7: SEQ ID NO 374 (peptide)
chain: SGTPEMPAML
notes: phage clone without anchor
B8: SEQ ID NO 371 (peptide)
chain: SGACLNHFVSGNMIRC
modifications: not fully specified (bridges); cysteine pairing not given here
notes: phage clone without anchor
B9: SEQ ID NO 386 (peptide)
chain: SGCRLPWNLQRIGLPC
B10: SEQ ID NO 370 (peptide)
chain: SGEHQFYSYRGVDVYR
notes: phage clone without anchor
B11: SEQ ID NO 387 (peptide)
chain: SGRCLNHLISGNMNSC
modifications: not fully specified (bridges); cysteine pairing not given here
B12: SEQ ID NO 378 (peptide)
chain: SGVCSDHYIGGKEVRC
modifications: not fully specified (bridges); cysteine pairing not given here
notes: phage clone without anchor
B13: SEQ ID NO 381 (peptide)
chain: SGHASKGMVLSG
notes: phage clone without anchor
B14: SEQ ID NO 380 (peptide)
chain: SGRNGSGYINRGIEIW
notes: phage clone without anchor
B15: SEQ ID NO 377 (peptide)
chain: SGAGKLDLSG
notes: phage clone without anchor
B16: SEQ ID NO 388 (peptide)
chain: SGACVKPCIAGNIIR
modifications: not fully specified (bridges); cysteine pairing not given here
B17: SEQ ID NO 383 (peptide)
chain: SGCFIPWNLQRIGLLC
B18: SEQ ID NO 368 (peptide)
chain: SGMVYVDRGVRVFT
notes: phage clone without anchor
B19: SEQ ID NO 372 (peptide)
chain: SGSYRGAWSVFGGSTD
notes: phage clone without anchor
B20: SEQ ID NO 390 (peptide)
chain: SGGSMPWNLERIFALH
B21: SEQ ID NO 385 (peptide)
chain: SGDFIPWNLVRIGLLR
B22: SEQ ID NO 379 (peptide)
chain: SGNALWNHDRLT
notes: phage clone without anchor
B23: SEQ ID NO 367 (peptide)
chain: SGNCWSSLRGICENLG
modifications: not fully specified (bridges); cysteine pairing not given here
notes: phage clone without anchor
B24: SEQ ID NO 369 (peptide)
chain: SGGCVKYRGSVSCQESKT
modifications: not fully specified (bridges); cysteine pairing not given here
notes: phage clone without anchor
B25: Compound 30 (peptide)
peptide: Ac-SGCRLPWNLQRIGLPC-NH2
modifications: disulfide 3-16 (inferred)
B26: Compound 31 (peptide)
peptide: Ac-CFIPWNLQRIGLLC-NH2
modifications: disulfide 1-14 (inferred)
B27: Compound 32 (peptide)
peptide: Ac-CRLPWNLQRIGLPC-NH2
modifications: disulfide 1-14 (inferred)
B28: Compound 68 (peptide)
peptide: Ac-CRLPWNLQRIGLAC-NH2
modifications: disulfide 1-14
SMILES: CC[C@H](C)[C@@H]1NC(=O)[C@H](CCCNC(=N)N)NC(=O)[C@H](CCC(N)=O)NC(=O)[C@H](CC(C)C)NC(=O)[C@H](CC(N)=O)NC(=O)[C@H](Cc2c[nH]c3ccccc23)NC(=O)[C@@H]2CCCN2C(=O)[C@H](CC(C)C)NC(=O)[C@H](CCCNC(=N)N)NC(=O)[C@@H](NC(C)=O)CSSC[C@@H](C(N)=O)NC(=O)[C@H](C)NC(=O)[C@H](CC(C)C)NC(=O)CNC1=O
B29: Compound 70 (peptide)
peptide: Ac-CRLPWNLQRIALPC-NH2
modifications: disulfide 1-14
SMILES: CC[C@H](C)[C@@H]1NC(=O)[C@H](CCCNC(=N)N)NC(=O)[C@H](CCC(N)=O)NC(=O)[C@H](CC(C)C)NC(=O)[C@H](CC(N)=O)NC(=O)[C@H](Cc2c[nH]c3ccccc23)NC(=O)[C@@H]2CCCN2C(=O)[C@H](CC(C)C)NC(=O)[C@H](CCCNC(=N)N)NC(=O)[C@@H](NC(C)=O)CSSC[C@@H](C(N)=O)NC(=O)[C@@H]2CCCN2C(=O)[C@H](CC(C)C)NC(=O)[C@H](C)NC1=O
B30: Compound 67 (peptide)
peptide: Ac-CRLPWNLKRIGLPC-NH2
modifications: disulfide 1-14
SMILES: CC[C@H](C)[C@@H]1NC(=O)[C@H](CCCNC(=N)N)NC(=O)[C@H](CCCCN)NC(=O)[C@H](CC(C)C)NC(=O)[C@H](CC(N)=O)NC(=O)[C@H](Cc2c[nH]c3ccccc23)NC(=O)[C@@H]2CCCN2C(=O)[C@H](CC(C)C)NC(=O)[C@H](CCCNC(=N)N)NC(=O)[C@@H](NC(C)=O)CSSC[C@@H](C(N)=O)NC(=O)[C@@H]2CCCN2C(=O)[C@H](CC(C)C)NC(=O)CNC1=O
B31: Compound 69 (peptide)
peptide: Ac-CRLPWNLQRIGAPC-NH2
modifications: disulfide 1-14
SMILES: CC[C@H](C)[C@@H]1NC(=O)[C@H](CCCNC(=N)N)NC(=O)[C@H](CCC(N)=O)NC(=O)[C@H](CC(C)C)NC(=O)[C@H](CC(N)=O)NC(=O)[C@H](Cc2c[nH]c3ccccc23)NC(=O)[C@@H]2CCCN2C(=O)[C@H](CC(C)C)NC(=O)[C@H](CCCNC(=N)N)NC(=O)[C@@H](NC(C)=O)CSSC[C@@H](C(N)=O)NC(=O)[C@@H]2CCCN2C(=O)[C@H](C)NC(=O)CNC1=O
B32: Compound 29 (peptide)
peptide: Ac-SGCFIPWNLQRIGLLC-NH2
modifications: disulfide 3-16 (inferred)

The binders below were run against T1, proprotein convertase subtilisin/kexin type 9 (PCSK9) (human, UniProt Q8NBP7 31-152) (assay: phage spot ELISA).
T1 construct: domain: prodomain; Recombinant; tag not written as a part; also called rec.PCSK9; His-PCSK9
T1 sequence (Q8NBP7 31-152 limits assumed, chain 1 of 2): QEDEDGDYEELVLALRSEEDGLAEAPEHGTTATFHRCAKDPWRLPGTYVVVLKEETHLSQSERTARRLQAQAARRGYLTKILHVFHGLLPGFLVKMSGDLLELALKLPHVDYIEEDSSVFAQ
T1 sequence (Q8NBP7 153-692 limits assumed, chain 2 of 2): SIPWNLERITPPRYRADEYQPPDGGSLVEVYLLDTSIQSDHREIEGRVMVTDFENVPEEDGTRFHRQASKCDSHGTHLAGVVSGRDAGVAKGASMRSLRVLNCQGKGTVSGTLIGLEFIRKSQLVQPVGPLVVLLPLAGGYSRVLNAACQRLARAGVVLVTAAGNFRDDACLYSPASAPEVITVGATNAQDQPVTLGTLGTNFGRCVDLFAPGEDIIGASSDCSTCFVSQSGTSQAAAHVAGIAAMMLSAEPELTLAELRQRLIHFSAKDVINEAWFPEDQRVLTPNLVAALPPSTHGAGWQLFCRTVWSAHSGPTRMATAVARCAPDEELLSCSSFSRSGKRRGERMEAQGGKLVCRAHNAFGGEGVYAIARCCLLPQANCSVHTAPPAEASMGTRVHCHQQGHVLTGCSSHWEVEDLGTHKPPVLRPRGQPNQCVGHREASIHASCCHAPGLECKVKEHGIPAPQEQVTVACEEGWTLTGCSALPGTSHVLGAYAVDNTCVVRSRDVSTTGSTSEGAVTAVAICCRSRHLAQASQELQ

Question: Does B1 bind?
Answer: Result: binds

Question: Does B2 bind?
Answer: Result: binds

Question: Does B3 bind?
Answer: Result: binds

Question: Does B4 bind?
Answer: Result: binds

Question: Does B5 bind?
Answer: Result: binds

Question: Does B6 bind?
Answer: Result: binds

Question: Does B7 bind?
Answer: Result: binds

Question: Does B8 bind?
Answer: Result: binds

Question: Does B9 bind?
Answer: Result: binds

Question: Does B10 bind?
Answer: Result: binds

Question: Does B11 bind?
Answer: Result: binds

Question: Does B12 bind?
Answer: Result: binds

Question: Does B13 bind?
Answer: Result: binds

Question: Does B14 bind?
Answer: Result: binds

Question: Does B15 bind?
Answer: Result: binds

Question: Does B16 bind?
Answer: Result: binds

Question: Does B17 bind?
Answer: Result: binds

Question: Does B18 bind?
Answer: Result: binds

Question: Does B19 bind?
Answer: Result: binds

Question: Does B20 bind?
Answer: Result: binds

Question: Does B21 bind?
Answer: Result: binds

Question: Does B22 bind?
Answer: Result: binds

Question: Does B23 bind?
Answer: Result: binds

Question: Does B24 bind?
Answer: Result: binds

Each binder was assayed against T2, His-tagged, full-length PCSK9 (human, UniProt A8T644 31-152; Q8NBP7 153-692) (assay: TR-FRET competition; competitor EGF(A)-Fc on His-PCSK9).
T2 construct: Target protein of the PCSK9/EGF(A) TR-FRET assay (10 nM); also called His-PCSK9; proprotein convertase subtilisin/kexin type 9
T2 sequence (A8T644 31-152 limits assumed, chain 1 of 2): as the sequence (Q8NBP7 31-152 limits assumed, chain 1 of 2) above
T2 sequence (A8T644 other isoform, or with tags, fused parts or gaps limits assumed, chain 2 of 2): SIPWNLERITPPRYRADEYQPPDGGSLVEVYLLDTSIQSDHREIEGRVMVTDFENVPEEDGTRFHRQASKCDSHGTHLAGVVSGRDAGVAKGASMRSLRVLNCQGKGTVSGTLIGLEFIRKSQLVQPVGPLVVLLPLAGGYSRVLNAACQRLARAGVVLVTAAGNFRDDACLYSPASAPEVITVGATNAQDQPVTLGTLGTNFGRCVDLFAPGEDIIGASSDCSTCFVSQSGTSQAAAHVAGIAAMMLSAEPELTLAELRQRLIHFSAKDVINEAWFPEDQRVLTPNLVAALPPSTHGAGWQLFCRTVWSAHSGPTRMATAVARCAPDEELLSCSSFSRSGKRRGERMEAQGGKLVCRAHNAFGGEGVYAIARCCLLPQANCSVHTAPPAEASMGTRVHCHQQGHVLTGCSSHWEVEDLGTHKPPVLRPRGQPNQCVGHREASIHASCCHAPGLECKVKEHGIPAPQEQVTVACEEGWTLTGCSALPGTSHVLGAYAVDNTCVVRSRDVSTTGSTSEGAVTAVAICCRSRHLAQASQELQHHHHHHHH

Question: With B25 as the binder, how does the IC50 read?
Answer: The IC50 was > 50 µM.

Question: With B26 as the binder, how does the IC50 read?
Answer: The IC50 was > 50 µM.

Question: With B27 as the binder, how does the IC50 read?
Answer: Its IC50 is > 50 µM.

Question: How did the IC50 turn out when B28 was run?
Answer: Its IC50 is > 50 µM.

Question: For B29, which IC50 is on record?
Answer: The IC50 was > 50 µM.

Question: For B30, which IC50 is on record?
Answer: The IC50 was > 50 µM.

Question: For B31, which IC50 is on record?
Answer: Its IC50 is > 50 µM.

Question: With B32 as the binder, how does the IC50 read?
Answer: Its IC50 is > 50 µM.
